In article PMC6907089:

Assays:
Experiment in all cases: BioID proximity labeling, quantitative mass spectrometry
Conditions in all cases: inducible HEK293 cells; read off a plot
[1] = biological target: SAHH2
[2] = biological target: NSF
[3] = biological target: RFA3
[4] = biological target: XIAP
[5] = biological target: TXND9
[6] = biological target: PAPOA
[7] = biological target: TBPL1
[8] = biological target: TES
[9] = biological target: COPA
[10] = biological target: DBNL
[11] = biological target: ELP4
[12] = biological target: COPB2
[13] = biological target: DBLOH
[14] = biological target: CDKAL
[15] = biological target: S23IP
[16] = biological target: SH3G1
[17] = biological target: COPE
[18] = biological target: EIF3D
[19] = biological target: N4BP1
[20] = biological target: ZYX
[21] = biological target: GRWD1
[22] = biological target: VRK2
[23] = biological target: AP2B1
[24] = biological target: NSMA3
[25] = biological target: AL1A2
[26] = biological target: SYAP1
[27] = biological target: NHLC2
[28] = biological target: SNP29
[29] = biological target: RFA2
[30] = biological target: CPIN1
[31] = biological target: TBD2B
[32] = biological target: CHM4B
[33] = biological target: EFHD2
[34] = biological target: CCD43
[35] = biological target: SEPT9
[36] = biological target: syntaxin 5 (STX5) (UniProt Q13190)
[37] = biological target: COPB
[38] = biological target: WDR44
[39] = biological target: ICAL
[40] = biological target: CKSP2
[41] = biological target: EMC2
[42] = biological target: COPD
[43] = biological target: DHYS

Chain of UniProt Q13190 (Q13190 whole entry): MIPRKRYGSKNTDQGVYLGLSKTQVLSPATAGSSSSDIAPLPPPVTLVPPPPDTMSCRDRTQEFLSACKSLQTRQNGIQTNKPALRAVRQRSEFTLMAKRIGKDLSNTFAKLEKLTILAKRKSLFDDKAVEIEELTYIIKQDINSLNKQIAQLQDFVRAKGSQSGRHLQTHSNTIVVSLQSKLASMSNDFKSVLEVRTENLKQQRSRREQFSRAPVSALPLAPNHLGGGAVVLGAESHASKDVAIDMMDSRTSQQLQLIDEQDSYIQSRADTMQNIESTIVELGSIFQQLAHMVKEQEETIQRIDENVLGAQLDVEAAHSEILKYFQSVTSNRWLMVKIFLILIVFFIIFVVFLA

STING R232 (from UniProt Q86WV6) G207E
ratio to parent [1]: 0.2 | ratio to parent [2]: 0.57 | ratio to parent [3]: 0.47 | ratio to parent [4]: 0.57 | ratio to parent [5]: 0.53 | ratio to parent [6]: 0.96 | ratio to parent [7]: 0.49 | ratio to parent [8]: 0.72 | ratio to parent [9]: 0.04 | ratio to parent [10]: 0.24 | ratio to parent [11]: 0.75 | ratio to parent [12]: 0.06 | ratio to parent [13]: 0.26 | ratio to parent [14]: 0.2 | ratio to parent [15]: 0.19 | ratio to parent [16]: 0.2 | ratio to parent [17]: 0.28 | ratio to parent [18]: 0.31 | ratio to parent [19]: 0.41 | ratio to parent [20]: 0.8 | ratio to parent [21]: 0.26 | ratio to parent [22]: 0 | ratio to parent [23]: 0.72 | ratio to parent [24]: 0.28 | ratio to parent [25]: 0.05 | ratio to parent [26]: 0.5 | ratio to parent [27]: 0.24 | ratio to parent [28]: 0.09 | ratio to parent [29]: 0.43 | ratio to parent [30]: 0.17 | ratio to parent [31]: 0.5 | ratio to parent [32]: 0.14 | ratio to parent [33]: 0.44 | ratio to parent [34]: 0.38 | ratio to parent [35]: 0.12 | ratio to parent [36]: 0.27 | ratio to parent [37]: 0.1 | ratio to parent [38]: 0.75 | ratio to parent [39]: 0.57 | ratio to parent [40]: 0.41 | ratio to parent [41]: 0 | ratio to parent [42]: 0.1 | ratio to parent [43]: 0

STING H232 (wild-type; wt) (from UniProt Q86WV6) G207E
ratio to parent [1]: 0.36 | ratio to parent [2]: 0.37 | ratio to parent [3]: 0.34 | ratio to parent [4]: 0.21 | ratio to parent [5]: 0.36 | ratio to parent [6]: 0.4 | ratio to parent [8]: 0.47 | ratio to parent [9]: 0.31 | ratio to parent [10]: 0.47 | ratio to parent [11]: 0.38 | ratio to parent [12]: 0.36 | ratio to parent [13]: 0.48 | ratio to parent [14]: 0.4 | ratio to parent [15]: 0.39 | ratio to parent [17]: 0.22 | ratio to parent [18]: 0.23 | ratio to parent [19]: 0.27 | ratio to parent [20]: 0.29 | ratio to parent [21]: 0.46 | ratio to parent [22]: 0.46 | ratio to parent [23]: 0.35 | ratio to parent [24]: 0.21 | ratio to parent [25]: 0.39 | ratio to parent [26]: 0.41 | ratio to parent [27]: 0 | ratio to parent [28]: 0.26 | ratio to parent [29]: 0.32 | ratio to parent [30]: 0.46 | ratio to parent [31]: 0.39 | ratio to parent [32]: 0.41 | ratio to parent [33]: 0.38 | ratio to parent [34]: 0.46 | ratio to parent [35]: 0.3 | ratio to parent [36]: 0.47 | ratio to parent [37]: 0.35 | ratio to parent [38]: 0.32 | ratio to parent [39]: 0 | ratio to parent [40]: 0 | ratio to parent [41]: 0.48 | ratio to parent [42]: 0.28 | ratio to parent [43]: 0
